In the supplement of paper PMC10126150:
± gives the standard deviation of the averaged measurements.

Tested on: ATP
Assay: switch fluorescence ratio, 500 uM ATP over buffer (Cy3 cluster intensity, sum of 5 cycles each) (fold (ratio)); higher = stronger signal-on switching upon ATP binding; sequences stand for … in TCGTCGGCAGCGTCAGATGTGTATAAGAGACAGTTTTTTTTTTTTTTTTTTTTTTTTT…TC
Conditions: aptamer strand: ATP DNA aptamer (quencher-CACCTGGGGGAGTATTGCGGAGGAAGG + anchor), 100 nM annealed; ATP concentration: 500 uM
How it was run: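 Clusters carrying Cy3-labelled switching strands on a modified Illumina MiSeq flow-cell were annealed to 100 nM quencher-labelled ATP aptamer and imaged in selection buffer. They were imaged again after 15 min with 500 uM ATP at 22 °C, over five buffer/ATP cycles with NaOH stripping and re-annealing in between. For each cluster, the fluorescence ratio is the summed Cy3 intensity of the target cycles divided by that of the buffer cycles, averaged per switch-domain sequence. Clusters outside 100-1000 RFU were left out.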
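Note: ATP exposure 15 min at 22 °C before imaging.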

Sequence | switch fluorescence ratio
ACTGGATCAC | 1.099 ± 0.0035
TGGGTCGGGA | 0.982 ± 0.031
TATGAGGCCA | 1.04 ± 0.023
TTAGAGGATT | 1.004 ± 0.007
GGAATCCGGC | 1.06 ± 0.02
GTTTTCTTGG | 0.977 ± 0.013
TGGGTGGGCT | 0.975 ± 0.011
TATTGATATT | 1.06 ± 0.14
TTAAAGGGGG | 1.02 ± 0.086
TCTTTTATGG | 1.04 ± 0.093
GCTAATGTTT | 0.998 ± 0.031
AGGGAGGGAA | 1.01 ± 0.022
GGGTTGAGTG | 0.982 ± 0.028
TTCGGCTTGG | 0.984 ± 0.035
TATGGTGAAG | 1 ± 0.024
AAGGGGGTAG | 1.01 ± 0.032
TTCGATTGGG | 0.95725 ± 0.00037
CTAGGCTAGG | 0.9885 ± 0.0012
TGGGGTCGGC | 0.987 ± 0.021
ACCACCTTAC | 2.32 ± 0.29
AATGTGTGGG | 1.01 ± 0.02
TAGGTCGGTG | 0.993 ± 0.011

Sequence | switch fluorescence ratio
GGGGGTAGCT | 1 ± 0.017
TTAGAAAAGG | 1 ± 0.032
GGGATGCCCT | 1.01 ± 0.027
AATTAGTACG | 0.981 ± 0.052
TTTTATAAGG | 1.01 ± 0.023
CCGGGGGATG | 1.03 ± 0.042
GGTGGGGTAG | 0.988 ± 0.021
AAGAACTAGG | 1.03 ± 0.041
CAGTGTCCGC | 1.07 ± 0.018
TTGTACTACC | 1.1603 ± 0.00036
AGCGGGGTCG | 1 ± 0.011
TAGGGGAACC | 0.9693 ± 0.0092
CGTCGTACGC | 0.981 ± 0.13
CCAGGGGGGG | 1.24 ± 0.32
AGCCGGCCTG | 1.02 ± 0.017
GGGATCTGGT | 1.002 ± 0.0098
CCCGGATTTG | 1.01 ± 0.055
CGGGGTTCTT | 1.02 ± 0.031
TCGGCATCGG | 1 ± 0.021
GACTGGATTG | 0.996 ± 0.06
TTCTGGCACG | 1.12 ± 0.18
GAGCAAAAGG | 1.004 ± 0.0058

Sequence | switch fluorescence ratio
TTGGCCTCGA | 1.01 ± 0.039
GGGGGATATG | 0.984 ± 0.027
TGCGTAGGGT | 0.967 ± 0.011
CGGGGGATAG | 1.06 ± 0.074
ATGAGGTGGG | 0.992 ± 0.036
TACTCACTTC | 1.21 ± 0.035
GGTGAGGCGC | 0.985 ± 0.066
CCATGTCAGC | 1.03 ± 0.021
GAGTCTGGGG | 0.978 ± 0.049
ATGGGGGTTA | 0.987 ± 0.04
AAGTGAAAGC | 1.01 ± 0.068
TATCATGCGC | 1.02 ± 0.054
TTTTCTGTG | 0.977 ± 0.031
TCTGGTCGCT | 1.018 ± 0.01
CGGTCCCATT | 0.992 ± 0.047
GACTTGTGGG | 1.02 ± 0.084
TCGGGGGGGA | 1.06 ± 0.14
GAAGGTGGGC | 0.962 ± 0.028
AACGTTTTTT | 0.991 ± 0.027
GGCGTAAAAG | 1.01 ± 0.038
TTAGTTTTGG | 1.04 ± 0.046
ATCATTAGTA | 0.999 ± 0.021

Sequence | switch fluorescence ratio
GGATTGAATG | 0.972 ± 0.025
CGGACTCCCA | 1.753 ± 0.014
TTAAGGGATT | 0.993 ± 0.032
TGGTGCCGGT | 1.01 ± 0.041
CGTGTGTACC | 1.007 ± 0.0049
GGGGTAGGGC | 1.04 ± 0.057
GGCTGCGCGG | 1 ± 0.032
TATACTCAGG | 1.05 ± 0.029
AAATTTTCC | 1.34 ± 0.065
CAGCATGGGG | 1.03 ± 0.017
TTGGGTGGC | 0.999 ± 0.011
AACGCAGCCT | 1.11 ± 0.0027
AGAGTGGTTA | 0.9864 ± 0.0033
AAGTGTTTTA | 1.001 ± 0.0045
GCTGGGCGGC | 0.95 ± 0.014
ATACGGCCCC | 1.2 ± 0.1
TGGCTCGAGC | 1.01 ± 0.017
GGACAATGAG | 0.998 ± 0.035
TCAGGGTGC | 1.204 ± 0.0036
